Molecular target: Myc-UbcM2-His6 (mouse) (UniProt P52483)
Test: pull-down

Myc-UbcM2-His6 (mouse), sequence (P52483 whole entry): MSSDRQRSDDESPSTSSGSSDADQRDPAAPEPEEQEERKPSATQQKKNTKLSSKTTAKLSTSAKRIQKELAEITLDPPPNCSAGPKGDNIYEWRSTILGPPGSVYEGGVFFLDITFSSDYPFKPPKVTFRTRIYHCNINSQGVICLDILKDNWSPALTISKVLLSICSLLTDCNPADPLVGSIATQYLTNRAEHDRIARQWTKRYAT
^35S-RCBTB1 without the BTB domain and the C-terminal 87 residues, sequence (Q8NDN9 1-359): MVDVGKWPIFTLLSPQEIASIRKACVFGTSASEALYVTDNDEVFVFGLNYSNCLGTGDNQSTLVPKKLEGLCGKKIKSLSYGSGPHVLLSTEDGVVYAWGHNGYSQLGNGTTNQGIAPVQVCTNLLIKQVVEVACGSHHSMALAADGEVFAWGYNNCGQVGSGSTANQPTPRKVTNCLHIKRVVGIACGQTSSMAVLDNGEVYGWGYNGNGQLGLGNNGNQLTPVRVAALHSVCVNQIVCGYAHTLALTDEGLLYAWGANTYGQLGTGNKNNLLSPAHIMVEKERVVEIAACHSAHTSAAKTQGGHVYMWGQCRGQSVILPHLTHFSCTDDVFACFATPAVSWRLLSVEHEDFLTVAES

- decrease of binding against wild type RCBTB1: 78%
Substance: ^35S-RCBTB1 without the BTB domain and the C-terminal 87 residues (from UniProt Q8NDN9 1-359) (domain or fragment)

From article PMC2680606
